Data reported in patent US20260167721A1 (ABLEXIS, published 2026).

B1: CD3 × CD33-BspAb45 (bispecific antibody)
chain 1: EVQLVESGGGLVQPGGSLRLSCAASGFTFSRYSMNWVRQAPGKCLEWVSYISSSSSSIYYADSVKGRFTISRDNAKNSLYLQMNSLRDEDTAVYYCARDRRATLDYWGQGTLVTVSSGGGGSGGGGSGGGGSGGGGSNFMLTQPHSVSESPGKTVTISCTRSSGSIASNYVQWYQQRPGSSPTTVIYEDNQRPSGVPDRFSGSIDSSSNSASLTISGLKTEDEADYYCQSYDSSNHVFGCGTKLTVLDKTHTCPPCPAPEFEGGPSVFLFPPKPKDTLMISRTPEVTCVVVDVSHEDPEVKFNWYVDGVEVHNAKTKPREEQYNSTYRVVSVLTVLHQDWLNGKEYKCKVSNKALPASIEKTISKAKGQPREPQVYTLPPCREEMTKNQVSLWCLVKGFYPSDIAVEWESNGQPENNYKTTPPVLDSDGSFFLYSKLTVDKSRWQQGNVFSCSVMHEALHNHYTQKSLSLSPGK
chain 2: EVQLVQSGAEVKKPGSSVKVSCKASGYTITDSNIHWVRQAPGQSLEWIGYIYPYNGGTDYNQKFKNRATLTVDNPTNTAYMELSSLRSEDTAFYYCVNGNPWLAYWGQGTLVTVSSASTKGPSVFPLAPSSKSTSGGTAALGCLVKDYFPEPVTVSWNSGALTSGVHTFPAVLQSSGLYSLSSVVTVPSSSLGTQTYICNVNHKPSNTKVDKRVEPKSCDKTHTCPPCPAPEFEGGPSVFLFPPKPKDTLMISRTPEVTCVVVDVSHEDPEVKFNWYVDGVEVHNAKTKPREEQYNSTYRVVSVLTVLHQDWLNGKEYKCKVSNKALPASIEKTISKAKGQPREPQVCTLPPSREEMTKNQVSLSCAVKGFYPSDIAVEWESNGQPENNYKTTPPVLDSDGSFFLVSKLTVDKSRWQQGNVFSCSVMHEALHNRFTQKSLSLSPGK
chain 3: DIQLTQSPSTLSASVGDRVTITCRASESLDNYGIRFLTWFQQKPGKAPKLLMYAASNQGSGVPSRFSGSGSGTEFTLTISSLQPDDFATYYCQQTKEVPWSFGQGTKVEVKRTVAAPSVFIFPPSDEQLKSGTASVVCLLNNFYPREAKVQWKVDNALQSGNSQESVTEQDSKDSTYSLSSTLTLSKADYEKHKVYACEVTHQGLSSPVTKSFNRGEC
B2: CD3 × CD33-BspAb52 (bispecific antibody)
chain 1: not shown
chain 2: B1 chain 2
chain 3: B1 chain 3
B3: CD3 × CD33-BspAb51 (bispecific antibody)
chain 1: not shown
chain 2: B1 chain 2
chain 3: B1 chain 3
B4: CD3 × CD33-BspAb37 (bispecific antibody)
chain 1: not shown
chain 2: B1 chain 2
chain 3: B1 chain 3
B5: CD3 × CD33-BspAb50 (bispecific antibody)
chain 1: not shown
chain 2: B1 chain 2
chain 3: B1 chain 3
B6: CD3 × CD33-BspAb61 (bispecific antibody)
chain 1: NFMLTQPHSVSESPGKTVTISCTRSSGSIASNYVQWYQQRPGSSPTTVIYEDNQRPSGVPDRFSGSIDSSSNSASLTISGLKTEDEADYYCQSFDNSNRVFGCGTKLTVLGGGGSGGGGSGGGGSGGGGSEVQLVESGGGLVKPGGSLRLSCAASGFTFSRYSMNWVRQAPGKCLKWVSSISSSGSYKYYADSVKGRFTISRDNAKNSLYLQMNSLRAEDTAVYYCAREPPTLGMDYWGQGTLVTVSSDKTHTCPPCPAPEFEGGPSVFLFPPKPKDTLMISRTPEVTCVVVDVSHEDPEVKFNWYVDGVEVHNAKTKPREEQYNSTYRVVSVLTVLHQDWLNGKEYKCKVSNKALPASIEKTISKAKGQPREPQVYTLPPCREEMTKNQVSLWCLVKGFYPSDIAVEWESNGQPENNYKTTPPVLDSDGSFFLYSKLTVDKSRWQQGNVFSCSVMHEALHNHYTQKSLSLSPGK
chain 2: B1 chain 2
chain 3: B1 chain 3

target: recombinant CD3 proteins; experiment: Octet (BLI), bispecific antibody against recombinant CD3 proteins

| Kd [nM] | Response | koff [s⁻¹] | kon [M⁻¹ s⁻¹] | Binder |
| --- | --- | --- | --- | --- |
| 177 | 0.58 | 0.0529 | 299000 | B1 |
| 19.5 | 0.07 | 0.00751 | 386000 | B2 |
| 74 | 0.26 | 0.00232 | 31400 | B3 |
| 213 | 0.34 | 0.00336 | 15800 | B4 |
| 125 | 0.33 | 0.00262 | 21000 | B5 |
| 7.62 | 0.74 | 0.00187 | 245000 | B6 |
